The source of these data is patent US20260028424A1 (GRANULAR THERAPEUTICS, published 2026).

Experiment [1] deals with T1, human CD203c expressed on the surface of KU812 cells (human, UniProt O14638 1-875).
T1 construct: whole, on cells; also called cell-surface CD203c; cell surface CD203c on KU812 cells
T1 sequence (looked up): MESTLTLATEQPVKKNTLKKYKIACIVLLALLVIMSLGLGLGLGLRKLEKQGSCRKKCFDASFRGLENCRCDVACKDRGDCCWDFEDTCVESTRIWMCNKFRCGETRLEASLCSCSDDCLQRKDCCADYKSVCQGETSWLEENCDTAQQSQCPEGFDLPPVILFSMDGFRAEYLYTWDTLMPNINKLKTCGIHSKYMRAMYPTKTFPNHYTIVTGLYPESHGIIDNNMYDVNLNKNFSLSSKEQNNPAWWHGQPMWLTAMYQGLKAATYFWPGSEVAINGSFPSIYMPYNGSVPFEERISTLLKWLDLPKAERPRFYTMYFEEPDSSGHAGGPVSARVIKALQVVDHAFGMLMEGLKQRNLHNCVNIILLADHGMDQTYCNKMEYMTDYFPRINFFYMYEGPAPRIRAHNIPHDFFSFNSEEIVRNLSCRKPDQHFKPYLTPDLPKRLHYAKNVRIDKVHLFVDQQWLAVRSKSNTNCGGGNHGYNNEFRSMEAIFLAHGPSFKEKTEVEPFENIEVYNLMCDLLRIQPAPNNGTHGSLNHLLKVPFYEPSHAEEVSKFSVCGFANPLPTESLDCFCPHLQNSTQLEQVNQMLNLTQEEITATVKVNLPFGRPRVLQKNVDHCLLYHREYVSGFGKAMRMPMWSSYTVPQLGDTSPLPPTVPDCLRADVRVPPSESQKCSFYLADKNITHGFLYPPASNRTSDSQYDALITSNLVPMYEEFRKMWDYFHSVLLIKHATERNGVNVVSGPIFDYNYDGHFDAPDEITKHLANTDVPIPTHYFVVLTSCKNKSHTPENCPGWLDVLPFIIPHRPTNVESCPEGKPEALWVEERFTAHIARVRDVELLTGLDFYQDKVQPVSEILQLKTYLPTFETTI
As to the kind of experiment: flow cytometry on KU812 cells. The procedure: All treatments were performed on cells seeded in T75 flasks at a seeding density of 0.3e6/ml. Cells were cultured in the presence of 80 ng/ml of SCF and treated with 20 ng/ml of IL3 24 hours prior to antibody staining. Following SCF/IL3 treatment, cells were harvested and stained with live dead stain (Zombie UV Biolegend 423108). Cells were then stained with a titration of anti-CD203c antibodies/bispecifics or respective isotype controls in a 5-fold dilution series starting at 50 μg/mL and detected with Anti human-Fc AF647 antibody (JIR 109-605-098). Samples were subsequently run on a Yeti analyzer, gating on 10K live cells. Subsequent analysis was performed using FlowJo software and data represented as MFI (median fluorescent intensity).
Background: Flow cytometry measures light scatter and fluorescence of single cells or particles in a stream.

In experiment [2] the target is T2, human CD203c His-tagged recombinant protein (human, UniProt O14638 49-875, limits assumed).
T2 construct: also called ENPP3; not shown: His tag
T2 sequence (looked up): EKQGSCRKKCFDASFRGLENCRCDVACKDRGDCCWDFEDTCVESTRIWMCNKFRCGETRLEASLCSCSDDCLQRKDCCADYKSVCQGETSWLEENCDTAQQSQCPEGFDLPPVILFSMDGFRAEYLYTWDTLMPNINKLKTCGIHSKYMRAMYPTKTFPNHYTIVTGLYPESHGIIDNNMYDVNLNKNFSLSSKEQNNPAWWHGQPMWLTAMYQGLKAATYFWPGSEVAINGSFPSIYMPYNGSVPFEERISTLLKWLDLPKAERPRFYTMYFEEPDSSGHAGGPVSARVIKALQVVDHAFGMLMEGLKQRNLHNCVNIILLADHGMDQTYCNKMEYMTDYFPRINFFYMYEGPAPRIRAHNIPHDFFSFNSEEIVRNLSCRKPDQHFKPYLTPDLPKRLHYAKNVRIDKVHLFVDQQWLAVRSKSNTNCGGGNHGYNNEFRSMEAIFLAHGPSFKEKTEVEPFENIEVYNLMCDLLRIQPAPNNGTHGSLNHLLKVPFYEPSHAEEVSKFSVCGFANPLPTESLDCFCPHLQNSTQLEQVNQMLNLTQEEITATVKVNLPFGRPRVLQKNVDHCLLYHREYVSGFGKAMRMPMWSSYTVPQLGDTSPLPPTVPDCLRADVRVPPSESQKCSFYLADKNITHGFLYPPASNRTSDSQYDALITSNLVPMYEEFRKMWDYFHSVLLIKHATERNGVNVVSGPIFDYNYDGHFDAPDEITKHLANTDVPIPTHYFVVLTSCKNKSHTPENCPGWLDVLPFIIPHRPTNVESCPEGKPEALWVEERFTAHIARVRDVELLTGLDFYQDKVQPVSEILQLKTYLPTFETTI
As to the kind of experiment: direct binding ELISA on coated recombinant human CD203c. How it is done:
(§1) Binding and cross-reactivity of the molecules to the human, rhesus, and cynomolgus CD203c was initially assessed by binding ELISA. The human CD203c His-tagged recombinant protein and the rhesus monkey CD203c His-tagged recombinant protein were coated to the surface of MaxiSorp™ flat-bottom 96 well plates at a concentration of 1 μg/ml. The purified samples were titrated in 5-fold serial dilutions starting from 100 nM and allowed to bind to the coated antigens. The IgGs were detected using mouse anti-human IgG conjugated to horseradish peroxidase. Binding signals were visualized with 3,3′,5,5′-Tetramethylbenzidine Substrate Solution (TMB) and the absorbance measured at 450 nm.
A general note: In an ELISA, binding on a coated surface is turned into a signal by an enzyme label.

Experiment [3] has as its target T3, rhesus monkey CD203c His-tagged recombinant protein (rhesus monkey, UniProt F6TH66 31-874).
T3 construct: also called rhesus CD203c; not shown: His tag
T3 sequence: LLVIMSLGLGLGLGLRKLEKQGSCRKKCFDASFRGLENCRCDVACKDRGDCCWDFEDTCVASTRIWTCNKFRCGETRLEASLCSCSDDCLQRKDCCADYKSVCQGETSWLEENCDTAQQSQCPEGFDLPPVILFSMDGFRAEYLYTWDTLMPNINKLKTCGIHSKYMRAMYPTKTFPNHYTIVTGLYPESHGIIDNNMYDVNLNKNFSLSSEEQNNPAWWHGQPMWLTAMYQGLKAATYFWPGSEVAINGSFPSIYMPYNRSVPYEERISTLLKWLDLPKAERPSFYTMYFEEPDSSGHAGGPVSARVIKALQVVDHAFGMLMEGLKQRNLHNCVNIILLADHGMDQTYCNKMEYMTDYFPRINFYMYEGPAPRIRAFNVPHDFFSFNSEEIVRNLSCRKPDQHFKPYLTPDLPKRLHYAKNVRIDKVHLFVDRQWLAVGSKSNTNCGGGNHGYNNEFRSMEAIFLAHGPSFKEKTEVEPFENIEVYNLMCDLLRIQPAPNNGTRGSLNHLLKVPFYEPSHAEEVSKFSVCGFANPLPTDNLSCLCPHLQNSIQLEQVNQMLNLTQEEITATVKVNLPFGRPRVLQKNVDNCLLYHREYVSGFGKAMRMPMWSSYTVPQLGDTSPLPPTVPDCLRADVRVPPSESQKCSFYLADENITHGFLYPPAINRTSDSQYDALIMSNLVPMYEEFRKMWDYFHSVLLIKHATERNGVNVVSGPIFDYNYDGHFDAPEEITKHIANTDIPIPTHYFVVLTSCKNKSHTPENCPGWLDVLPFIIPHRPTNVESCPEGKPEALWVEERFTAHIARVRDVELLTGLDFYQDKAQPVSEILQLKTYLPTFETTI
As to the kind of experiment: direct binding ELISA on coated recombinant rhesus CD203c. The procedure: as §1

B1: anti-CD203c 1.27 IgG (parental clone, MH1 common light chain) (antibody, V domains shown)
VH: EVQLVQSGAEVKKPGESLKISCKGSGYRFTSYWIGWVRQMPGKGLEWMGIIYPGDSDTRYSPSFQGQVTISADKSISTAYLQWSSLKASDTAMYYCARKDYYYYAMDVWGQGTTVTVSS
VL: DIQMTQSPSSLSASVGDRVTITCRASQGIRTNLAWFQQKPGKAPKSLIYAASSLQSGVPSRFSGSGSGTDFTLTISSLQPEDFATYYCQQYNSYPRTFGGGTKVEIK
notes: IgG1null (human IgG1 with L234A, L235A, G237A) and human Ckappa
One may read the EC50 as the concentration giving half of the maximal effect. Broadly, the EC50 (read off the curve) is the concentration needed to bring the measured effect to its halfway point. As to B1, the EC50 in experiment [1] is 98.2 nM. In addition, the “EC50 (read off the curve)” value in experiment [2] was approximately 7 nM. In experiment [3], the binding result was “binds”.
